Test results: article PMC12820099, “CTCF couples long-range loop extrusion and diffusion to mediate a diverse Igκ repertoire” (Nature Communications, 2025)

Target: T1, SMC3 (mouse (endogenous in v-Abl pro-B cells), UniProt Q9CW03 1-1217)
T1 construct: SMC3, mouse, endogenous; precipitated with an SMC3 antibody from the solubilised chromatin fraction; Bait of the IP; it sits in the cohesin complex, so partners may touch other cohesin subunits rather than SMC3 itself; also called cohesin (SMC3 immunoprecipitate); source: endogenous, chromatin fraction of G1 arrested v-Abl pro-B cells (WT and CTCF-Nm)
T1 sequence (Q9CW03 whole entry): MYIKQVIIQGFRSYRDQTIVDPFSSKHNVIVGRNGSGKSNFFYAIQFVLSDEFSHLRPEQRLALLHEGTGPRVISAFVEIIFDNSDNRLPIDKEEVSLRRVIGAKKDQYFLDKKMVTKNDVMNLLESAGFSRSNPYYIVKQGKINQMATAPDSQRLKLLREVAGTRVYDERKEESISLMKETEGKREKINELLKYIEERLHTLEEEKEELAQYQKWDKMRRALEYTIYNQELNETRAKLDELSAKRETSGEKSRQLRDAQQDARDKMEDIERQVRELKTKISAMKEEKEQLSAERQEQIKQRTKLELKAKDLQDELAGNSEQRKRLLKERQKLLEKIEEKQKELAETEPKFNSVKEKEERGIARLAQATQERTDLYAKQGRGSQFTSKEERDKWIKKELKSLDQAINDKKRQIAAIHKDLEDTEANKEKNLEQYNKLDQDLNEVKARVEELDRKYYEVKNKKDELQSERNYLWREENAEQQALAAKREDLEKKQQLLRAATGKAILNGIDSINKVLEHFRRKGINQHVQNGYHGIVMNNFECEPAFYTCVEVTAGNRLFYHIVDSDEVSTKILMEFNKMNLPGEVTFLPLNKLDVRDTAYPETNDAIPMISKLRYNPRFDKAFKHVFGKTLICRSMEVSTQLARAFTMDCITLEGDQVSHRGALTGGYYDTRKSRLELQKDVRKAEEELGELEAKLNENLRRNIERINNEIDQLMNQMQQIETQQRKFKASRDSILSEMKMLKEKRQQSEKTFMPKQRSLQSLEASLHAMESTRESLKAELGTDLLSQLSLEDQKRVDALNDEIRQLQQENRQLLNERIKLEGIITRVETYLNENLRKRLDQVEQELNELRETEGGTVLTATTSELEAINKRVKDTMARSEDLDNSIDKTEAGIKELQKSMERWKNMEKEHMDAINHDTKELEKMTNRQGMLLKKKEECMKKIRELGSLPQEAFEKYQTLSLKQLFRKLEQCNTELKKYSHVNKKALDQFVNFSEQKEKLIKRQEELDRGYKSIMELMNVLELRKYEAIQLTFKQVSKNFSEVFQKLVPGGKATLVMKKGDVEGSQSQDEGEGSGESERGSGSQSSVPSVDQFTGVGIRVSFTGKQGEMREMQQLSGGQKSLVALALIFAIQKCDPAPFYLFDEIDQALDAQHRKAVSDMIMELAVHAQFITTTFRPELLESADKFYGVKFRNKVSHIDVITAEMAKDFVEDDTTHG
Experiment: affinity purification with mass spectrometry; SMC3 antibody IP (Protein A beads, overnight, 100 mM NaCl) from Benzonase-solubilised chromatin fraction of G1 arrested WT and CTCF-Nm v-Abl pro-B cells; label-free qMS, protein intensities normalised to chromatin-bound SMC3; IgG isotype control
Details: partners not purified

Row | Binder | fold increase of the interaction in CTCF-Nm cells against WT cells | fold reduction of the interaction against WT CTCF
1 | WAPL (natural protein, mouse (endogenous in v-Abl pro-B cells), UniProt Q65Z40 1-1200, looked up, WAPL, mouse, endogenous, untagged in the WT and CTCF-Nm lines used for the IP; source: endogenous, chromatin fraction of G1 arrested v-Abl pro-B cells (WT and CTCF-Nm)) MTSRFGKTYSRKGGNGSSKFDEVFSNKRTTLSTKWGETTFMAKLGQKRPNFKPDIQEIPKKPKVEEEDTGDPFGFDSDDESLPVSSKNLAQGKGSSYSESSEAAQLEEVTSVFEANSKCSHVVGEDSFASDRCLLVEDTLIGKEKSISRIPEDNANKSSCTKLLTSDKVENFSEEHEKNSHHFHKNAEDSTKKPNAETAVASEYKADETKETNDTWNSQSGKRTESPSESCPVKGSVRTGLYEWDNDFEDIRSEDCILSLDNESLLEMKDEDLKNRIGGLENLNETFEEDIIQSVLRPSNCRTYCRANKARSSQGASNFDKLMDGTSQSLAKANSESSKDGLNQAKKGSASCGTSFRGTVGRTRDYTVLHPSCLSVCNVTIQDTMERSMDEFTASTPADLGEAGRLRKKADIATSKTTTRFRPSNTKSKKDVKLEFFGFEDHDETGGDEGGSGSSNYKIKYFGFDDLSESEDDDDDDCQVERKKDKKRTKTAPSPSQQPPPESSDNSQDSQSSTNNAENLDFTEDLPGVPESVKKPISKQGDKSKENTRKIFSGPKRSPTKAVYNARHWNHPDSEELPGPPIAKPQRVTVRLSSKEPNQKDDGVFKAPAPPLKVIKTVTIPTQPYQEIVTALKCRKEDKELYTVVQHVKHFNDVVEFGENQEFTDDIEYLLSGLKSTQPLNTRCLSVISLATKCAMPSFRMHLRAHGMVAMVFKTLDDSQHHQNLSLCTAALMYILSRDRLNMDLDRASLDLMIRLLELEQDASSAKLLNEKDMNKIKEKIRRLCETVHNKHLDLENITTGHLAMETLLSLTSKRAGDWFKEELRLLGGLDHIVDKVKECVDHLSRDDEDEEKLVASLWGAERCLRVLESVTVHNPENQSYLIAYKDSQLIISSAKALQHCEDLIQQYNRAENSICVADSNPLPYQNVTNHVGKAVEDCMRAIIGVLLNLTNDNEWGSTKTGEQEGLIGTAMNCVLQVPKYLPQEQRFDIRVLGLGLLINLVEYSARNRHCLVNMQTSCSFDSSFSSGEGDHSLRLAGQVHAVQALVQLFLERERAAQLAESKTDELIKDAPTTQHDKSGEWQETSGEIQWVSTEKTDGAEEKQKKEEEDEELDLNKALQHAGKHMEDCIVASYTALLLGCLCQESPINVTTVREYLPEGDFSIMTEMLKKFLSFMNLTCAVGTTGQKSISRVIEYLEHC | 1.9 fold | 
2 | CTCF(Y226A/F228A) (natural protein, mouse (endogenous in v-Abl pro-B cells), UniProt Q61164 1-736, looked up, CTCF, mouse, endogenous, with the Y226A/F228A mutation of the N-terminal YDF motif; also called CTCF-Nm; source: endogenous locus, homozygous CRISPR/Cas9 knock-in, chromatin fraction of G1 arrested CTCF-Nm v-Abl pro-B cells) MEGEAVEAIVEESETFIKGKERKTYQRRREGGQEEDACHLPQNQTDGGEVVQDVNSSVQMVMMEQLDPTLLQMKTEVMEGTVAPEAEAAVDDTQIITLQVVNMEEQPINIGELQLVQVPVPVTVPVATTSVEELQGAYENEVSKEGLAESEPMICHTLPLPEGFQVVKVGANGEVETLEQGELPPQEDSSWQKDPDYQPPAKKTKKTKKSKLRYTEEGKDVDVSVADAEEEQQEGLLSEVNAEKVVGNMKPPKPTKIKKKGVKKTFQCELCSYTCPRRSNLDRHMKSHTDERPHKCHLCGRAFRTVTLLRNHLNTHTGTRPHKCPDCDMAFVTSGELVRHRRYKHTHEKPFKCSMCDYASVEVSKLKRHIRSHTGERPFQCSLCSYASRDTYKLKRHMRTHSGEKPYECYICHARFTQSGTMKMHILQKHTENVAKFHCPHCDTVIARKSDLGVHLRKQHSYIEQGKKCRYCDAVFHERYALIQHQKSHKNEKRFKCDQCDYACRQERHMIMHKRTHTGEKPYACSHCDKTFRQKQLLDMHFKRYHDPNFVPAAFVCSKCGKTFTRRNTMARHADNCAGPDGVEGENGGETKKSKRGRKRKMRSKKEDSSDSEENAEPDLDDNEEEEEPAVEIEPEPEPQPQPPPPPQPVAPAPPPAKKRRGRPPGRTNQPKQNQPTAIIQVEDQNTGAIENIIVEVKKEPDAEPAEGEEEEAQAATTDAPNGDLTPEMILSMMDR |  | 3 fold
